In US20230348854A1 one finds autologous primary NK cells killed, 2:1 E:T and percentage of live NKp46-expressing K562 target cells after 24 hours with CAR T cells, 2:1 data, which are given here for two substances.

Test [1] concerns the target Human CD94/NKG2A inhibitory receptor (CD159a), on NK cells (human) (UniProt Q13241). The test is described as follows: cell-based or functional assay.
The target of test [2] is Human NKp46 (NCR1, CD335), on cells (human) (UniProt O76036). The test is described as follows: cell-based or functional assay.
Chain of UniProt O76036 (O76036 22-304 Q82K limits assumed): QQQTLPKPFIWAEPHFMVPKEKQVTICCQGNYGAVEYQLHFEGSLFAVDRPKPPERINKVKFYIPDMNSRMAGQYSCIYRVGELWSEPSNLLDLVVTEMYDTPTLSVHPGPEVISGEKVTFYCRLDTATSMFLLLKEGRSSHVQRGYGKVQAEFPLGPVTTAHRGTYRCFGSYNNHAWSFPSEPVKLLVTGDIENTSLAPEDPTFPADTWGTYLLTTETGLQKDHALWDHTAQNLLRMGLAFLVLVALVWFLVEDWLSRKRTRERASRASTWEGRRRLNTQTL

With “anti-NKG2A (HLA-E) CAR (αNKG2A CAR): G peptide/B2M/HLA-E 01:03 single-chain trimer fused to 4-1BB/CD3 zeta, expressed on primary human T cells (peptide-MHC)”, the autologous primary NK cells killed, 2:1 E:T in test [1] is 64%. As for “anti-CD19 CAR (αCD19 control CAR), expressed on primary human T cells (scFv)”, the percentage of live NKp46-expressing K562 target cells after 24 hours with CAR T cells, 2:1 in test [2] amounted to 16.2%.
